Consider four molecules from patent US20090088386A1 (KAGOSHIMA UNIVERSITY, published 2009).

Test [1] concerns the target T1, pepB7-C15 (pepD1-C5, C7, C20) peptide phage clone.
T1 construct: also called pepD1-C7; pepD1-C20; not shown: phage gene III protein of the Ph.D.-C7C library phage (New England Biolabs)
T1 peptide: CYGTKPWMC
Briefly: biopanning on coated B7 scFv; no ELISA figure is given for B7.

Another test addresses T2, amyloid β peptide 1-42 (UniProt P05067 672-713).
T2 construct: domain: Aβ1-42; In the precipitation experiment it stood as oligomer and fibers formed 1.5 hours after dissolution at 40 µM; also called Aβ1-42; Aβ oligomer
Briefly: precipitation of Aβ oligomer and fibers with streptavidin-magnet beads, Western blot with anti-Aβ antibodies. On the technique in general: A western blot detects proteins with antibodies after separation by electrophoresis.

For test [2], the target named is T3, pepB6-L1 peptide phage clone (not fully specified (C-terminus)).
T3 construct: not shown: phage gene III protein of the Ph.D.-12 library phage (New England Biolabs)
T3 peptide: GMLDIFAPIRHV
The test can be described thus: phage ELISA, scFv coated on plate, phage detected with anti-M13 antibody. A general note: An ELISA detects its analyte on a solid surface through an enzyme-linked reagent.

Test [3] concerns the target T4, pepB6-L10 peptide phage clone (not fully specified (C-terminus)).
T4 construct: not shown: phage gene III protein of the Ph.D.-12 library phage (New England Biolabs)
T4 peptide: TSPILDVLTPPR
The test is described as above.

In test [4] the target is T5, pepD1-C3 peptide phage clone.
T5 construct: not shown: phage gene III protein of the Ph.D.-C7C library phage (New England Biolabs)
T5 peptide: CQGHLPWMC
Described as above.

The target in test [5] is T6, pepD1-C2, C13 peptide phage clone.
T6 construct: also called pepD1-C13; not shown: phage gene III protein of the Ph.D.-C7C library phage (New England Biolabs)
T6 peptide: CYGTEPWMC
The description is as above.

Test [6] deals with T7, pepD1-C11 peptide phage clone.
T7 construct: not shown: phage gene III protein of the Ph.D.-C7C library phage (New England Biolabs)
T7 peptide: CFGHKPWMC
The test is described as above.

For test [7], the target named is T1, pepB7-C15 (pepD1-C5, C7, C20) peptide …. Described as above.
Method: An ELISA plate was coated with scFv used as a template in the panning or with control scFv in an amount of 50 ng/40 μl/well (0.1 M NaHCO₃, pH 8.6) at 4° C. for 6 hours. Each well was blocked with 0.5% gelatin at 4° C. for 13 hours. Each well was washed with 0.2% PBST three times and then reacted at room temperature for 1 hour by the addition of the isolated peptide phage clone solution (approximately 1.6×10¹¹ virions/40 μl). After reaction with 40 μl of biotinylated anti-M13 monoclonal antibodies (diluted 1000 folds) and a streptavidin-alkaline phosphatase conjugate (diluted 1000 folds), bound phages were detected using substrate p-nitrophenyl phosphate.
The experiment was conducted according to the procedures described in the paragraph (5) ELISA. […] The experiment was conducted according to the procedures described in the paragraph (5) ELISA. […] The experiment was conducted according to the procedures described in the paragraph (5) ELISA.
The target of test [8] is T8, pepD1-L13 peptide phage clone.
T8 construct: not shown: phage gene III protein of the Ph.D.-12 library phage (New England Biolabs)
T8 peptide: GNTLLDTLVPLI
The description is as above.

For test [9], the target named is T9, pepD1-L5, L9 peptide phage clone.
T9 construct: also called pepD1-L9; not shown: phage gene III protein of the Ph.D.-12 library phage (New England Biolabs)
T9 peptide: GSPFLDLLAPAA
The description is as above.

Test [10] addresses T10, pepD1-L6 peptide phage clone.
T10 construct: not shown: phage gene III protein of the Ph.D.-12 library phage (New England Biolabs)
T10 peptide: SSIIDILLPPIY
Described as above.

In test [11] the target is T11, pepD1-C10 peptide phage clone.
T11 construct: not shown: phage gene III protein of the Ph.D.-C7C library phage (New England Biolabs)
T11 peptide: CFGSLPWMC
The description is as above.

The target of test [12] is T12, pepD1-L20 peptide phage clone.
T12 construct: not shown: phage gene III protein of the Ph.D.-12 library phage (New England Biolabs)
T12 peptide: NPLDFYAPSILP
Described as above.

In test [13] the target is T13, pepD1-C18 peptide phage clone.
T13 construct: not shown: phage gene III protein of the Ph.D.-C7C library phage (New England Biolabs)
T13 peptide: CFGHEPWMC
The description is as above.

Test [14] addresses T14, pepD1-C8 peptide phage clone.
T14 construct: not shown: phage gene III protein of the Ph.D.-C7C library phage (New England Biolabs)
T14 peptide: CFGRLPWMC
The description is as above.

In test [15] the target is T15, pepD1-L7 peptide phage clone.
T15 construct: not shown: phage gene III protein of the Ph.D.-12 library phage (New England Biolabs)
T15 peptide: SILDILSPRLAE
The test is described as above.

No end group written: not given here.

T2 sequence (P05067 672-713 limits assumed): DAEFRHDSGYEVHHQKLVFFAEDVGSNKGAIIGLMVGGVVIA
Method for amyloid β peptide 1-42: Aβ1-42 was dissolved at a concentration of 40 μM in 20 mM phosphate buffer, pH 7.0. […] After reaction, an aliquot thereof was sampled as a sample before immunoprecipitation (“Before precipitation”), and the remaining sample was reacted with M-280 streptavidin-magnet beads (Dynal Biotech, Oslo, Norway) adjusted to 20 μg/μl on ice for 1 hour at a ratio of 1:1 by liquid volume (final concentration: Aβ [10 μM]/synthesized peptide [10 μM]/beads [10 μg/μl]). After reaction, the beads were precipitated using a magnet to obtain “Supernatant”. To the precipitated beads, PBS was added in a liquid volume equal to the collected supernatant to obtain “Pellet”. Each obtained sample was electrophoresed and subjected to Western blot analysis using anti-Aβ antibodies.
Aβ1-42 was dissolved at a concentration of 40 μM in 20 mM phosphate buffer, pH 7.0.

B1: B7 scFv (clone B7 described in WO 2005/105998) (scFv, V domains shown)
VH: QVQLVQSGGGLVQPGGSQRLSCAASGFGFSNYAVSWVRQAPGTGLEWVAGVNGGGQNTFYADSVKGRFTISRDNSKKTVYLQMNSLRVEDTAIYYCAKDGRFRNRRPDGFDTWGQGTLVTVSS
VL: SSELTQDPNVSVALGQTVRITCQGDTLRNNFPTWYQQKPGQAPVLVFYGKDNRPSGIPDRFSGSRSGTTASLVITGAQAQDEADYYCNSRDSGGHHLVFGGGTKLTVLG
notes: Human single-chain antibody
Consider B1, for which the binding result in test [1] was “binds”.
As for GSGGGSCGYWRSEWGLCG (also called unrelated peptide) [unrelated control peptide (GSGGGSCGYWRSEWGLCG)], in the test with amyloid β peptide 1-42, the binding result is on record as “no binding”.

B2: B6 scFv (clone B6 described in WO 2005/105998) (scFv, V domains shown)
VH: QVQLVQSGGGVVQPGGSLRLSCAASGFTFSRYAMSWVRQAPGKGLEWVSAMSGSGDTTYYADSVKGRFTISRDNSKKTVYLQMNRLRVEDTAIYYCAKDGRFRNRRSDGFDTWGQGTLVTVSS
VL: SSELTQDPAVSVALGQTVRITCQGDSLRSYYASWYQQKPGQAPVLVIYGKDNRPSGIPDRFSGSSSGNAASLTITGAQAEDEADYYCNSRDTSGNHLVFGGGTKVTVLG
notes: Human single-chain antibody
B2: the binding result in test [2] and in [3] was “binds” each time.

B3: D1 scFv (clone D1 described in WO 2005/105998) (scFv, V domains shown)
VH: QVTLKESGGDLVKPGGSLRLSCAASGFTFRKYYMAWIRQAPGKGPEWLSTISNSGDIIDYADSVRGRFSISRDNAQKSLYLQMTSLRPDDSAIYYCAREYFFSFDVWGRGTLVTVSS
VL: SSELTQDPAVSVALGQTIRITCQGDSLRSYYASWYQQKPGQAPVLVIYGKNKRPSGIPDRISGSRSGNTASLTITGAQAEDEADYYCNSRDSSGNHLVFGGGTQLTVLG
notes: Human single-chain antibody
As for B3, the binding result in test [4], in test [5], in test [6], in test [7], in test [8] and in test [9] was “binds” each time. Also, the binding result in test [10], in test [11], in [12], in [13], in [14] and in test [15] was “binds” each time.
